According to US20140011732A1 (Novo Nordisk, published 2014):
Starred links: 1 amine or outer side, 2 acyl side, 3 side chain; linkers in the order of their positions; H or OH if unused. Non-standard residues stand in square brackets, D forms with d. Groups on a side chain read outwards from the residue. *: point of attachment. C20 diacid = O=C(O)CCCCCCCCCCCCCCCCCCC(=O)*; γGlu = O=C(O)[C@H](CCC(=O)[*:2])N[*:1]; Desaminohistidyl = O=C(CCc1c[nH]cn1)*; AEEA = NCCOCCOCC(=O)O; Inp = O=C(O)C1CCNCC1

Target: T1, human serum albumin (HSA) (human, UniProt P02768 25-609, biotinylated)
T1 construct: also called biotinylated HSA
Assay: competition SPA on biotinylated HSA, 125I acylated GLP-1 tracer;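 also: streptavidin SPA beads carrying biotinylated HSA, competition incubated 20 h at room temperature, plates then read on a TopCount counter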
Experimental: Streptavidin-SPA beads (GE Healthcare RPNQ0009) were incubated with biotinylated HSA for 5 hours. The beads were washed with buffer to remove unbound HSA. […] After 20 hours of gentle rocking at room temperature the plates were centrifuged and counted on a TopCounter.

- EC50: 300 to 800 nM
B1: [DesaminoHis7,Glu22,Arg26,Arg34]GLP-1-(7-37)Lys[2-(2-[2-(2-[2-(2-((S)-4-[1-[19-Carboxynonadecanoyl]piperidine-4-carbonylamino]-4-carboxybutyrylamino)ethoxy)etho … (peptide)
peptide: [Desaminohistidyl]AEGTFTSDVSSYLEEQAAREFIAWLVRGRGK([AEEA-AEEA-γGlu-Inp-C20 diacid])-NH2
SMILES: CC[C@H](C)[C@H](NC(=O)[C@H](Cc1ccccc1)NC(=O)[C@H](CCC(=O)O)NC(=O)[C@H](CCCNC(=N)N)NC(=O)[C@H](C)NC(=O)[C@H](C)NC(=O)[C@H](CCC(N)=O)NC(=O)[C@H](CCC(=O)O)NC(=O)[C@H](CCC(=O)O)NC(=O)[C@H](CC(C)C)NC(=O)[C@H](Cc1ccc(O)cc1)NC(=O)[C@H](CO)NC(=O)[C@H](CO)NC(=O)[C@@H](NC(=O)[C@H](CC(=O)O)NC(=O)[C@H](CO)NC(=O)[C@@H](NC(=O)[C@H](Cc1ccccc1)NC(=O)[C@@H](NC(=O)CNC(=O)[C@H](CCC(=O)O)NC(=O)[C@H](C)NC(=O)CCc1c[nH]cn1)[C@@H](C)O)[C@@H](C)O)C(C)C)C(=O)N[C@@H](C)C(=O)N[C@@H](Cc1c[nH]c2ccccc12)C(=O)N[C@@H](CC(C)C)C(=O)N[C@H](C(=O)N[C@@H](CCCNC(=N)N)C(=O)NCC(=O)N[C@@H](CCCNC(=N)N)C(=O)NCC(=O)N[C@@H](CCCCNC(=O)COCCOCCNC(=O)COCCOCCNC(=O)CC[C@H](NC(=O)C1CCN(C(=O)CCCCCCCCCCCCCCCCCCC(=O)O)CC1)C(=O)O)C(N)=O)C(C)C
